Measured values as given in patent US20170037124A1 (Regeneron, published 2017).

T1: human ANGPTL8 peptide (hANGPTL8 peptide, SEQ ID NO: 337) (human)
T1 construct: also called N-terminal region ANGPTL8 peptide
T1 peptide: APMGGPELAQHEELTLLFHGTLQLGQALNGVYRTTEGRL

T2: peptide from the N-terminal coiled-coil region of human ANGPTL4 (hANGPTL4 peptide, SEQ ID NO: 339) (human)
T2 peptide: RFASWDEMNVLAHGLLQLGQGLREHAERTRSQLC

T3: peptide from the N-terminal coiled-coil region of human ANGPTL3 (hANGPTL3 peptide, SEQ ID NO: 338) (human)
T3 construct: also called hANGPTL3 shift peptide
T3 peptide: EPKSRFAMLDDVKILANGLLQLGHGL

T4: monkey ANGPTL8 expressed with C-terminal mouse IgG2a Fc tag (MfANGPTL8-mFc; SEQ ID NO: 341) (cynomolgus monkey)
T4 construct: also called cynomolgus monkey ANGPTL8
T4 chain: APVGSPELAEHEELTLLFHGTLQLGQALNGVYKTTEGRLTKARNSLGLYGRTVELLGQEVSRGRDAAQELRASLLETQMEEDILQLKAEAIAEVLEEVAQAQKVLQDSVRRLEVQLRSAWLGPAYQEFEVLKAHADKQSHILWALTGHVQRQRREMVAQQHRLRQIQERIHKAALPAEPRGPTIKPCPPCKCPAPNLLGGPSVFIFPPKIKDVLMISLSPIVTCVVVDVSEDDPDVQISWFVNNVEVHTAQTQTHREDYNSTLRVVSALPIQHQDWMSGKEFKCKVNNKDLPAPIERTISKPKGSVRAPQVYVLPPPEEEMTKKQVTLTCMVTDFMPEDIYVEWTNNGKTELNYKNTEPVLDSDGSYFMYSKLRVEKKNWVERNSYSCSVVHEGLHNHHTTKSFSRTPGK

T5: human ANGPTL8 expressed with C-terminal mouse IgG2a Fc tag (hANGPTL8-mFc; SEQ ID NO: 340) (human)
T5 construct: also called Angiopoietin-like protein 8
T5 chain: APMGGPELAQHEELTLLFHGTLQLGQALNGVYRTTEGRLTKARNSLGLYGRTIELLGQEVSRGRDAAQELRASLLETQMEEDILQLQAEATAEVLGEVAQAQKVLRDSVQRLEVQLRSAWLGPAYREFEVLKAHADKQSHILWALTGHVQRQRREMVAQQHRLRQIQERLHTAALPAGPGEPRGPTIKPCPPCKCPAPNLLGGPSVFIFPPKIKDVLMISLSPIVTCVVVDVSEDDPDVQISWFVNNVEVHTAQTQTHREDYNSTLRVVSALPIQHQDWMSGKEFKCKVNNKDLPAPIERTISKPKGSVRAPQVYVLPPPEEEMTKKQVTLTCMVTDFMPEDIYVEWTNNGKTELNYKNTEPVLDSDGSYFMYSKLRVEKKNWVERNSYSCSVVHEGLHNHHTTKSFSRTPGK

B1: H4H15347P (antibody, human IgG4, V domains shown)
VH: EVQLVESGGGLVQPGGSLRLSCAASGFTFRNYAMNWARQAPGKGLEWVSGITGSGGATYYADSVKGRFTISRENSKNTLFLQMDTLRAEDTAVYYCAKDRRYFPTSGGPQWGQGTLVTVSS
VL: DIVMTQSPLSLPVTPGEPASISCRSSRSLLHSSGYNYLDWYLQKPGQSPQLLLYLGSNRASGVPDRFSGSGSGTYFTLKISRVDAEDVGVYYCMQALQTPWTFGQGTKVEIK
notes: H4H prefix: human IgG4 Fc
B2: H4H15361P2 (antibody, human IgG4, V domains shown)
VH: EVQLVESGGGLVQPGRSLRLSCTASGFSFGDNAMGWVRQAPGKGLEWVSFIRRKASGGTTEYAASVKGRFTISRDDSKSIAYLQMNSLKTEDTGVYYCTRGGAVYGYWGQGTLVTVSS
VL: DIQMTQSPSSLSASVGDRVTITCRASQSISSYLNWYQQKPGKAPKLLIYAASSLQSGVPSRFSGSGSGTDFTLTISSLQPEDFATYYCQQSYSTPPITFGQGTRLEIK
notes: H4H prefix: human IgG4 Fc
B3: H4H15335P (antibody, human IgG4, V domains shown)
VH: QVQLVESGGGVVQPGRSLRLSCAASGFTFNNYGIHWVRQAPGKGLEWVAVISYDESNKYYADSVKGRFTISRDNSKNTLYLQMNSLRAEDTAVYYCAKDIRIAARRHYYYYGMDVWGQGTTVTVSS
VL: DIQMTQSPSSVSASVGDRVTITCRASQGISRWLAWYQQKPGKAPKLLIYAASSLESGVPARFSGSGSGTDFTLTISSLQPEDFATYYCQQANSFPITFGPGTKVDIK
notes: H4H prefix: human IgG4 Fc
B4: H4H15357P2 (antibody, human IgG4, V domains shown)
VH: EVQLVESGGGLVKPGGSLRLSCTASGFTFGNAWMSWVRQAPGKGLEWVGLIKGKTDGGTTNYAAPVKGRFTISRDDSKNTLYLHLNSLRTEDTALYYCTTDQVELRQYYYYGLDVWGQGTTVTVSS
VL: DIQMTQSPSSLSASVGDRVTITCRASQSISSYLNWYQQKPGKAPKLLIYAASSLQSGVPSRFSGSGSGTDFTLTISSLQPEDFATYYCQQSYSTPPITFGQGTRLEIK
notes: H4H prefix: human IgG4 Fc
B5: H4H15355P2 (antibody, human IgG4, V domains shown)
VH: QVQLVESGGGVVQPGRSLRLSCAASGFTFTNYAMHWVRQAPGKGLEWVAVISYDGSHTYFADSVKGRFTMSRDNSKNTISLQMNSLRPEDTAVYFCAGGGATTWFYFYGLDVWGQGTTVTVSS
VL: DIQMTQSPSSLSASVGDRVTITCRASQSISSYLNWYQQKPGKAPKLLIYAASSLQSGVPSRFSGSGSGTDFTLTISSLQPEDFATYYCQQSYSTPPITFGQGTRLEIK
notes: H4H prefix: human IgG4 Fc
B6: H4H15363P2 (antibody, human IgG4, V domains shown)
VH: EVQLVESGGGLVQPGGSLRLSCAASGFTFSNYAMSWVRQVPGKGLEWVSTISGSGGSTYYADSVKGRFTISRDNSKNSLYLQMNSLRAEDTAVYYCAKLVRGVIGWFDPWGQGTLVTVSS
VL: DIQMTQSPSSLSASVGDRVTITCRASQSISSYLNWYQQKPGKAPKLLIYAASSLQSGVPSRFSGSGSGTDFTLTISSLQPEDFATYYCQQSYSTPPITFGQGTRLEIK
notes: H4H prefix: human IgG4 Fc
B7: H4H15354P2 (antibody, human IgG4, V domains shown)
VH: QVQLVESGGGVVQPGRSLRLSCTASGFTFNNYGIHWVRQAPGKGLEWVAVISYDGSNKFYAESVRGRFTISRDNSRNTLFLQMISLRGEDSAVYYCAKDRPYYDILTAHYPSDYYFYAMDVWGHGTTVTVSS
VL: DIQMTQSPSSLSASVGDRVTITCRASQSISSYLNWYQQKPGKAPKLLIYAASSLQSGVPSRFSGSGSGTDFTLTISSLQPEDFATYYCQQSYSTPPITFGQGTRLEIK
notes: H4H prefix: human IgG4 Fc

Assays:
[1] = target: T1, human ANGPTL8 peptide (hANGPTL8 …); experiment: SPR, captured mAb, 500 nM peptide, 25C
Protocol: (§1) The assay utilized a format where ANGPTL8 antibodies were captured on the sensor surface and peptides were injected over the antibody surface. Peptides from the N-terminal coiled-coil region of human ANGPTL3 (hANGPTL3 peptide, SEQ ID NO: 338) and human ANGPTL4 (hANGPTL4 peptide, SEQ ID NO: 339) were also included as controls. Also included was a control antibody (H4H268P from US2011/0159015A1) that binds to the ANGPTL4 peptide and a negative isotype control antibody. All binding studies were performed in 10 mM HEPES pH 7.4, 150 mM NaCl, 3 mM EDTA, and 0.05% v/v Surfactant Tween-20 (HBS-ET running buffer) at 25° C. The HCA sensor surface was derivatized via amine coupling to a monoclonal mouse anti-human Fc antibody (GE, # BR-1008-39), and to this surface was captured approximately 1000 RU of each ANGPTL8 antibody or control antibody. Peptide stock solutions were diluted in HBS-ET running buffer to 500 nM and injected over the antibody-captured surfaces for 4 minutes at a flow rate of 30 μL/minute followed by the dissociation of bound peptide in HBS-ET running buffer for 10 minutes.
(§2) Dissociative half-lives (t½) were calculated from kd as: […]

[2] = target: T2, peptide from the N-terminal coiled-coil …; experiment: SPR, captured mAb, 500 nM peptide, 25C
Protocol: as §1, §2

[3] = target: T3, peptide from the N-terminal coiled-coil …; experiment: SPR, captured mAb, 500 nM peptide, 25C
Protocol: as §1, §2

[4] = target: T4, monkey ANGPTL8 expressed with …; experiment: BLI Octet, captured antigen, 100 nM mAb, 25C
Protocol: (§3) Binding of ANGPTL8 antibodies to human and monkey ANGPTL8 proteins was investigated using Bio-layer Interferometry with an Octet HTX biosensor platform (ForteBio, A Division of Pall Life Sciences). All experiments were performed at 25° C. in 10 mM HEPES pH 7.4, 150 mM NaCl, 0.05% v/v Surfactant Tween-20, and 1 mg/ml BSA with the reaction multiwell plate agitated at 1000 rpm. Approximately 1.6 nm of human ANGPTL8 produced with a C-terminal mouse IgG2a Fc tag (hANGPTL8-mFc; SEQ ID NO: 340) or cynomolgus monkey ANGPTL8 produced with a C-terminal mouse IgG2a Fc tag (MfANGPTL8-mFc; SEQ ID NO: 341) was captured onto anti-mFc (AMC) Octet biosensors by submerging the sensors into wells containing 10 μg/mL of each protein for 4 minutes. Under the same conditions a negative control protein with the same mFc tag (hLDLR-mFc) was also coupled to the AMC sensor. All four sensors, […] and one blank, were then submerged into wells containing 100 nM of different ANGPTL8 monoclonal antibodies or an isotype control for 4 minutes.

[5] = target: T5, human ANGPTL8 expressed with C-terminal …; experiment: BLI Octet, captured antigen, 100 nM mAb, 25C
Protocol: as §3

[6] = target: T6, anti-mFc (AMC) Octet biosensor, blank; experiment: BLI Octet, blank AMC sensor, 100 nM mAb, 25C
T6 construct: Sensor without captured protein, used as blank; also called Blank AMC Sensor
Protocol: as §3

Binder	500 nM hANGPTL8 peptide Bound (RU) [1] [RU]	binding result [1]	500 nM hAngPTL4 peptide Bound (RU) [2] [RU]	binding result [2]	500 nM hANGPTL3 peptide Bound (RU) [3] [RU]	mAb Binding Response (nm) [4] [nm]	mAb Binding Response (nm) [5] [nm]	mAb Binding Response (nm) [6] [nm]	binding result [3]
B1	0	no binding (tested: <9 RU at 500 nM peptide)	0	no binding (tested: <9 RU at 500 nM peptide)	-1	0.29	0.25	0.03	–
B2	4	no binding (tested: <9 RU at 500 nM peptide)	0	no binding (tested: <9 RU at 500 nM peptide)	0	0.21	0.2	0.02	no binding (tested: <9 RU at 500 nM peptide)
B3	0	no binding (tested: <9 RU at 500 nM peptide)	1	no binding (tested: <9 RU at 500 nM peptide)	-1	0.04	0.06	0.01	–
B4	0	no binding (tested: <9 RU at 500 nM peptide)	0	no binding (tested: <9 RU at 500 nM peptide)	0	0.08	0.13	0.02	no binding (tested: <9 RU at 500 nM peptide)
B5	0	no binding (tested: <9 RU at 500 nM peptide)	0	no binding (tested: <9 RU at 500 nM peptide)	0	0.13	0.15	0.03	no binding (tested: <9 RU at 500 nM peptide)
B6	0	no binding (tested: <9 RU at 500 nM peptide)	0	no binding (tested: <9 RU at 500 nM peptide)	0	0.26	0.25	0.02	no binding (tested: <9 RU at 500 nM peptide)
B7	0	no binding (tested: <9 RU at 500 nM peptide)	0	no binding (tested: <9 RU at 500 nM peptide)	0	0.03	0.05	0.02	no binding (tested: <9 RU at 500 nM peptide)
